For orientation: pKd means the negative decadic logarithm of the Kd, by convention in mol/L.

Numbering of substitutions follows the chain as printed.

The source of these data is PMC9482650, “Quantitative fragmentomics allow affinity mapping of interactomes” (Nature Communications, 2022).

Assay in all cases: holdup assay
Set-up in all cases: key: below the threshold = too weak to quantify, mostly under pKd 3.1 to 4
Holding throughout (settings): plain residues with an end cap or a label only (N-terminal biotin on a linker: ado-ado)

The target of assay [1] is GRASP, Q7Z6J2.
In assay [2] the target is T1, APBA1_1, Q02410.
T1 sequence (Q02410 651-752, limits assumed, looked up): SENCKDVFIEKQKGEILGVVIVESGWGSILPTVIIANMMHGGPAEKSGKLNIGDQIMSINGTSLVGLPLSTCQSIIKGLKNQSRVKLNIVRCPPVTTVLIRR

Assay [3] addresses T2, TIAM2, Q8IVF5.
T2 sequence (Q8IVF5 885-986, limits assumed, looked up): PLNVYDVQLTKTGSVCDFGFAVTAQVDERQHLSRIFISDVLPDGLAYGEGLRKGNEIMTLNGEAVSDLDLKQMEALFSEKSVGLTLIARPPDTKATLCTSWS

In assay [4] the target is T3, ARHGEF11, O15085.
T3 sequence (O15085 42-136, limits assumed, looked up): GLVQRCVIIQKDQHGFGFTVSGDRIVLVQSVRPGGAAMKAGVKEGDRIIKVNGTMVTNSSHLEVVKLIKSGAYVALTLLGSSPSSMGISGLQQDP

Assay [5] has as its target LAP2, Q96RT1.
Assay [6] deals with T4, LIN7C, Q9NUP9.
T4 sequence (Q9NUP9 88-185, limits assumed, looked up): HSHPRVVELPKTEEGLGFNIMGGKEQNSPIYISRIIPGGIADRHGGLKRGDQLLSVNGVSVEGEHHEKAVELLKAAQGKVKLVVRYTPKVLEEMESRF

Assay [7] addresses T5, TX1BP3, O14907.
T5 sequence (O14907 10-122, limits assumed, looked up): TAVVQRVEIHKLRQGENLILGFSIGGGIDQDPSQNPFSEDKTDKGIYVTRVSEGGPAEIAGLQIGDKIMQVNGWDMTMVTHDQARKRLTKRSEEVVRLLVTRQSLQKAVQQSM

For assay [8], the target named is GRID2IP_2, A4D2P6.
The target of assay [9] is PICK1, Q9NRD5.
For assay [10], the target named is Inadl_6, Q8NI35.
For assay [11], the target named is SNX27, Q96L92.
Assay [12] addresses T6, PDZD2_2, O15018.
T6 sequence (O15018 329-429, limits assumed, looked up): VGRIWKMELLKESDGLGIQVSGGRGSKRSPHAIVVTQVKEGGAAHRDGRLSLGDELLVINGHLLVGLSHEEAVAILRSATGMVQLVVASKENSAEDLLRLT

For assay [13], the target named is T7, DLG3_2, Q92796.
T7 sequence (Q92796 221-321, limits assumed, looked up): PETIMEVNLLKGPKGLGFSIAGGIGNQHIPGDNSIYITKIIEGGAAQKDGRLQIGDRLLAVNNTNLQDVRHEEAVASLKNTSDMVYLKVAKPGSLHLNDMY

The target of assay [14] is FRMPD2_2, Q68DX3.
The target in assay [15] is T8, GRIP1_4, Q9Y3R0.
T8 sequence (Q9Y3R0 467-571, limits assumed, looked up): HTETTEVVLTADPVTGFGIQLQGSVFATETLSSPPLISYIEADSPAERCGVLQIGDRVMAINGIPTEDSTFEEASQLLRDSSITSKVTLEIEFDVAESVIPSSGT

For assay [16], the target named is T9, LIN7B, Q9HAP6.
T9 sequence (Q9HAP6 88-185, limits assumed, looked up): T4 sequence (Q9NUP9 88-185, limits assumed, looked up) with S2A, E13D, I35V, I40V, H65Q, K79S, K89R, S96A

Assay [17] concerns the target T10, MPDZ_10, O75970.
T10 sequence (O75970 1624-1722, limits assumed, looked up): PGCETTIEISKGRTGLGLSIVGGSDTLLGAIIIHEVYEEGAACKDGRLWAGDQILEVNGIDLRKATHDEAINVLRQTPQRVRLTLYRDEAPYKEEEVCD

In assay [18] the target is T11, MPDZ_5, O75970.
T11 sequence (O75970 695-796, limits assumed, looked up): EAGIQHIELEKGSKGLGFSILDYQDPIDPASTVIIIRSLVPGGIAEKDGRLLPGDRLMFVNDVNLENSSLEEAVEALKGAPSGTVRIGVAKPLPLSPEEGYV

The target in assay [19] is FRMPD2_3, Q68DX3.
In assay [20] the target is T12, DVL3, Q92997.
T12 sequence (Q92997 244-331, limits assumed, looked up): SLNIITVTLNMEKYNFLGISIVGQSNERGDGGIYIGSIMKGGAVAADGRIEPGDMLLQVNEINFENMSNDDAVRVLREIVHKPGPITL

The target of assay [21] is MAGI1_2, Q96QZ7.
Assay [22] deals with LNX1_2, Q8TBB1.
In assay [23] the target is T13, SNTB1, Q13884.
T13 sequence (Q13884 107-205, limits assumed, looked up): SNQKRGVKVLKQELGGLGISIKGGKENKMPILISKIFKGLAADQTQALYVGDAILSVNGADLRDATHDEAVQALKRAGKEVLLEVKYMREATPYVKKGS

Sequence of GRID2IP_2, A4D2P6 (A4D2P6 272-370): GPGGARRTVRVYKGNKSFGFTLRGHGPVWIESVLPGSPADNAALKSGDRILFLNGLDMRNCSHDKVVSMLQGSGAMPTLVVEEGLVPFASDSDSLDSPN
Sequence of FRMPD2_3, Q68DX3 (Q68DX3 1073-1166): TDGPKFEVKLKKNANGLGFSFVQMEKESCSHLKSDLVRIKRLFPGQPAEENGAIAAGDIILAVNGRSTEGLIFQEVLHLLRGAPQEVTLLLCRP
Sequence of FRMPD2_2, Q68DX3 (Q68DX3 944-1038): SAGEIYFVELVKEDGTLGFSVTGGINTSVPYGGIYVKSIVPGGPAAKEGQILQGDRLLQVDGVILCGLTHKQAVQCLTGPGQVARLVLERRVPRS
Sequence of GRASP, Q7Z6J2 (Q7Z6J2 96-193): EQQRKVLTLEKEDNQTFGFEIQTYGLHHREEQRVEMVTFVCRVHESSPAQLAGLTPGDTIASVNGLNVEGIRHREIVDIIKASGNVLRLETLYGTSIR
Sequence of MAGI1_2, Q96QZ7 (Q96QZ7 456-580): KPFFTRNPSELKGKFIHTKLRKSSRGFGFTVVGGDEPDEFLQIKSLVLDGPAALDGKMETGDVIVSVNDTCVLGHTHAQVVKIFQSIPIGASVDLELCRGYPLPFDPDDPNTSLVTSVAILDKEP
Sequence of Inadl_6, Q8NI35 (Q8NI35 1058-1167): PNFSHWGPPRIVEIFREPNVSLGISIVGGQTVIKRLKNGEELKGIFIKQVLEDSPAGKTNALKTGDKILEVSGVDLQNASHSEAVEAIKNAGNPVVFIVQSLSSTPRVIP
Sequence of LNX1_2, Q8TBB1 (Q8TBB1 371-470): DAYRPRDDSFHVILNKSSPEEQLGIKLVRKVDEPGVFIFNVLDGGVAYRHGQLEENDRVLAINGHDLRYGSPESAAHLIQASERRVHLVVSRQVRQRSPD
Sequence of PICK1, Q9NRD5 (Q9NRD5 17-115): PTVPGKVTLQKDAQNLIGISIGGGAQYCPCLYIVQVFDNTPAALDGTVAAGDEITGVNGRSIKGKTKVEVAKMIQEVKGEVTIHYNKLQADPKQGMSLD
Sequence of LAP2, Q96RT1 (Q96RT1 other isoform, or with tags, fused parts or gaps): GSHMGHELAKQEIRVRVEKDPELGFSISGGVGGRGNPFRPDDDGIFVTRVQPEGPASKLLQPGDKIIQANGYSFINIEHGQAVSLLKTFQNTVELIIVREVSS

On to WAKEKQHTRL [SLC17A1, Q14916], for which the pKd in assay [1] is 4.71; in assay [2], “below the threshold”; in assay [3], “below the threshold”; in assay [4], 4.25; in assay [5], “below the threshold”; in assay [6], “below the threshold”. In addition, the pKd entry was “below the threshold” in assay [7]; 4.25 in [8]; “below the threshold” in assay [9]; “below the threshold” in assay [10]; 4.28 in assay [11]; “below the threshold” in [12]. Besides, the pKd result in assay [13], in [14], in assay [15], in assay [16], in assay [17] and in [18] was “below the threshold” each time. Besides, the pKd result in assay [19] is “below the threshold”; in [20] it was “below the threshold”; in assay [21] it was 4.7; in assay [22], “below the threshold”; in [23] it was 3.82.
PALKNGQYWV [CSPG4, Q6UVK1]: the pKd entry in assay [1] was “below the threshold”; in [2] it was “below the threshold”; in [3], 4.83; in assay [4] it was 3.8; in [5] it was 3.75; in assay [6], 4.15. The pKd was 4.19 in assay [7]; 3.75 in assay [8]; “below the threshold” in [9]; “below the threshold” in [10]; 3.77 in assay [11]; 5.45 in [12]. Moreover, the pKd result is “below the threshold” in assay [13]; “below the threshold” in assay [14]; “below the threshold” in assay [15]; “below the threshold” in [16]; “below the threshold” in assay [17]; 4.2 in [18]. Further, the pKd result in [19] is “below the threshold”; in assay [20], 4.2; in [21], “below the threshold”; in [22], 4.27; in [23] it was “below the threshold”.
As for FLVTEFNVML [DFNB31, Q9P202], the pKd was 3.72 in assay [1]; “below the threshold” in [2]; 3.59 in assay [3]; 3.95 in assay [4]; “below the threshold” in assay [5]; “below the threshold” in assay [6]. Further, the pKd in assay [7] is 3.96; in [8] it was “below the threshold”; in [9], “below the threshold”; in assay [10] it was “below the threshold”; in [11], 4.4; in assay [12], 3.63. Besides, the pKd entry in assay [13], in assay [14], in [15], in assay [16], in assay [17] and in assay [18] was “below the threshold” in each case. Moreover, the pKd entry in [19] is “below the threshold”; in assay [20], 3.66; in [21], “below the threshold”; in assay [22] it was “below the threshold”; in assay [23], “below the threshold”.
For the molecule YAEKRMLTEV [KCNA6, P17658], the pKd in [1] was 4.32; in assay [2] it was “below the threshold”; in [3], 3.99; in [4], 5.03; in [5], “below the threshold”; in assay [6], 3.52. For the same molecule, the pKd in [7] was 4.29; in [8], 3.72; in [9] it was “below the threshold”; in assay [10], “below the threshold”; in [11], “below the threshold”; in assay [12] it was 4.34. Also, the pKd was 4.6 in assay [13]; “below the threshold” in assay [14]; “below the threshold” in assay [15]; 3.65 in [16]; “below the threshold” in [17]; “below the threshold” in assay [18]. In addition, the pKd result was “below the threshold” in [19]; “below the threshold” in assay [20]; 4.54 in assay [21]; 3.51 in [22]; “below the threshold” in [23].
For AHGSTRDQSI [KCNB1, Q14721], the pKd result in assay [1] was “below the threshold”; in [2] it was “below the threshold”; in [3], 4.05; in [4] it was 4.4; in assay [5], “below the threshold”; in assay [6], “below the threshold”. The pKd in [7] is 4.1; in assay [8], “below the threshold”; in assay [9], 4.15; in assay [10] it was “below the threshold”; in assay [11], “below the threshold”; in assay [12], “below the threshold”. The pKd in assay [13] is 4.21; in assay [14] it was “below the threshold”; in assay [15], “below the threshold”; in [16] it was 3.68; in assay [17], “below the threshold”; in assay [18], “below the threshold”. Further, the pKd result in [19] is “below the threshold”; in assay [20], 3.66; in [21], “below the threshold”; in assay [22], “below the threshold”; in assay [23] it was “below the threshold”.
